In the supplement of paper PMC12783771:
± gives the standard deviation of the averaged measurements.

B1: library; numbered along this chain (parent)
chain: MNIQIGELAKRTACPVVTIRFYEQEGLLPPPGRSRGNFRLYGEEHVERLQFIRHCRSLDMPLSDVRTLLSYRKRPDQDCGEVNMLLDEHIRQVESRIGALLELKHHLVELREACSGARPAQSCGILQGLSDCVCDTRGTTAHPSD

Experiments:
[1] = variants of: B1; assay: sfGFP reporter fluorescence (15 h) (µM FITC); higher = higher leak; details: library round: Round 0; ligand: none
Outline: (§1)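 PCR-made linear PbrR templates (Echo-normalized to 5 nM) were expressed in BL21 Star (DE3) extract (PANOx-SP) with pPbrR-sfGFP reporter plasmid and 30 μg/mL GamS. Reactions were 1 μL, Echo-assembled, with 1 µM lead chloride, 30 µM zinc acetate or no metal, incubated 15 hr at 30 °C. Endpoint sfGFP fluorescence (485/528 nm, Synergy Neo2) was converted to µM FITC via standard curves in 50 mM sodium borate pH 8.5. Up to three biological replicates.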

[2] = variants of: B1; assay: sfGFP reporter fluorescence (15 h) (µM FITC); higher = stronger transcriptional activation; details: library round: Round 0
Outline: as §1

MNIQIGELAKRTACPVVTIRFYEQEGLLPPPGRSRGNFRLYGEEHVERLQFIRHCRSLDMPLSDVRTLLSYRKRPDQDCGEVNMLLDEHIRQVESRIGALLELKHHLVELREACSGARPAQSCGILQGPSDCVCDTRGTTAHPSD [L129P]
sfGFP reporter fluorescence [1]: 0.05387 ± 0.00052 | sfGFP reporter fluorescence ([2]; ligand: 1 µM Pb): 0.055 ± 0.0036 | sfGFP reporter fluorescence ([2]; ligand: 30 µM Zn): 0.0491 ± 0.0026

MNIQIGELAKRTACPVVTIRFYEQEGLLPPPGRSRGNFRLYGEEHVERLQFIRHCRSLDMPLSDVRTLLSYRKRPDQDCGEVNMLLDEHIRQVESRIGALLELKHHLVELREACSGARPAQSCGILQGESDCVCDTRGTTAHPSD [L129E]
sfGFP reporter fluorescence [1]: 0.0581 ± 0.0013 | sfGFP reporter fluorescence ([2]; ligand: 1 µM Pb): 0.0597 ± 0.0021 | sfGFP reporter fluorescence ([2]; ligand: 30 µM Zn): 0.0546 ± 0.0015

MNIQIGELAKRTACPVVTIRFYEQEGLLPPPGRSRGNFRLYGEEHVERLQFIRHCRSLDMPLSDVRTLLSYRKRPDQDCGEVNMLLDEHIRQVESRIGALLELKHHLVELREACSGARPAQSCGILQGKSDCVCDTRGTTAHPSD [L129K]
sfGFP reporter fluorescence [1]: 0.0581 ± 0.00078 | sfGFP reporter fluorescence ([2]; ligand: 1 µM Pb): 0.059 ± 0.0021 | sfGFP reporter fluorescence ([2]; ligand: 30 µM Zn): 0.05662 ± 0.00026

MNIQIGELAKRTACPVVTIRFYEQEGLLPPPGRSRGNFRLYGEEHVERLQFIRHCRSLDMPLSDVRTLLSYRKRPDQDCGEVNMLLDEHIRQVESRIGALLELKHHLVELREACSGARPAQSCGILQGGSDCVCDTRGTTAHPSD [L129G]
sfGFP reporter fluorescence [1]: 0.0526 ± 0.00078 | sfGFP reporter fluorescence ([2]; ligand: 1 µM Pb): 0.0542 ± 0.001 | sfGFP reporter fluorescence ([2]; ligand: 30 µM Zn): 0.0509 ± 0.0021

MNIQIGELAKRTACPVVTIRFYEQEGLLPPPGRSRGNFRLYGEEHVERLQFIRHCRSLDMPLSDVRTLLSYRKRPDQDCGEVNMLLDEHIRQVESRIGALLELKHHLVELREACSGARPAQSCGILQGTSDCVCDTRGTTAHPSD [L129T]
sfGFP reporter fluorescence [1]: 0.05827 ± 0.00052 | sfGFP reporter fluorescence ([2]; ligand: 1 µM Pb): 0.0581 ± 0.00078 | sfGFP reporter fluorescence ([2]; ligand: 30 µM Zn): 0.055 ± 0.0021

MNIQIGELAKRTACPVVTIRFYEQEGLLPPPGRSRGNFRLYGEEHVERLQFIRHCRSLDMPLSDVRTLLSYRKRPDQDCGEVNMLLDEHIRQVESRIGALLELKHHLVELREACSGARPAQSCGILQGMSDCVCDTRGTTAHPSD [L129M]
sfGFP reporter fluorescence [1]: 0.0577 ± 0.00078 | sfGFP reporter fluorescence ([2]; ligand: 1 µM Pb): 0.05901 ± 0.00052 | sfGFP reporter fluorescence ([2]; ligand: 30 µM Zn): 0.0788 ± 0.0047

MNIQIGELAKRTACPVVTIRFYEQEGLLPPPGRSRGNFRLYGEEHVERLQFIRHCRSLDMPLSDVRTLLSYRKRPDQDCGEVNMLLDEHIRQVESRIGALLELKHHLVELREACSGARPAQSCGILQGHSDCVCDTRGTTAHPSD [L129H]
sfGFP reporter fluorescence [1]: 0.0586 ± 0.0015 | sfGFP reporter fluorescence ([2]; ligand: 1 µM Pb): 0.0586 ± 0.0021 | sfGFP reporter fluorescence ([2]; ligand: 30 µM Zn): 0.0583 ± 0.0015

MNIQIGELAKRTACPVVTIRFYEQEGLLPPPGRSRGNFRLYGEEHVERLQFIRHCRSLDMPLSDVRTLLSYRKRPDQDCGEVNMLLDEHIRQVESRIGALLELKHHLVELREACSGARPAQSCGILQGSSDCVCDTRGTTAHPSD [L129S]
sfGFP reporter fluorescence [1]: 0.0577 ± 0.0013 | sfGFP reporter fluorescence ([2]; ligand: 1 µM Pb): 0.05901 ± 0.00052 | sfGFP reporter fluorescence ([2]; ligand: 30 µM Zn): 0.0563 ± 0.00078

MNIQIGELAKRTACPVVTIRFYEQEGLLPPPGRSRGNFRLYGEEHVERLQFIRHCRSLDMPLSDVRTLLSYRKRPDQDCGEVNMLLDEHIRQVESRIGALLELKHHLVELREACSGARPAQSCGILQGQSDCVCDTRGTTAHPSD [L129Q]
sfGFP reporter fluorescence [1]: 0.0588 ± 0.0018 | sfGFP reporter fluorescence ([2]; ligand: 1 µM Pb): 0.0574 ± 0.0013 | sfGFP reporter fluorescence ([2]; ligand: 30 µM Zn): 0.05406 ± 0.00026

MNIQIGELAKRTACPVVTIRFYEQEGLLPPPGRSRGNFRLYGEEHVERLQFIRHCRSLDMPLSDVRTLLSYRKRPDQDCGEVNMLLDEHIRQVESRIGALLELKHHLVELREACSGARPAQSCGILQGRSDCVCDTRGTTAHPSD [L129R]
sfGFP reporter fluorescence [1]: 0.0588 ± 0.00078 | sfGFP reporter fluorescence ([2]; ligand: 1 µM Pb): 0.05901 ± 0.00052 | sfGFP reporter fluorescence ([2]; ligand: 30 µM Zn): 0.0557

MNIQIGELAKRTACPVVTIRFYEQEGLLPPPGRSRGNFRLYGEEHVERLQFIRHCRSLDMPLSDVRTLLSYRKRPDQDCGEVNMLLDEHIRQVESRIGALLELKHHLVELREACSGARPAQSCGILQGISDCVCDTRGTTAHPSD [L129I]
sfGFP reporter fluorescence [1]: 0.0535 ± 0.0021 | sfGFP reporter fluorescence ([2]; ligand: 1 µM Pb): 0.0592 ± 0.0013 | sfGFP reporter fluorescence ([2]; ligand: 30 µM Zn): 0.163 ± 0.012

MNIQIGELAKRTACPVVTIRFYEQEGLLPPPGRSRGNFRLYGEEHVERLQFIRHCRSLDMPLSDVRTLLSYRKRPDQDCGEVNMLLDEHIRQVESRIGALLELKHHLVELREACSGARPAQSCGILQGVSDCVCDTRGTTAHPSD [L129V]
sfGFP reporter fluorescence [1]: 0.0557 ± 0.001 | sfGFP reporter fluorescence ([2]; ligand: 1 µM Pb): 0.05717 ± 0.00052 | sfGFP reporter fluorescence ([2]; ligand: 30 µM Zn): 0.05351 ± 0.00052

MNIQIGELAKRTACPVVTIRFYEQEGLLPPPGRSRGNFRLYGEEHVERLQFIRHCRSLDMPLSDVRTLLSYRKRPDQDCGEVNMLLDEHIRQVESRIGALLELKHHLVELREACSGARPAQSCGILQGNSDCVCDTRGTTAHPSD [L129N]
sfGFP reporter fluorescence [1]: 0.0586 ± 0.0015 | sfGFP reporter fluorescence ([2]; ligand: 1 µM Pb): 0.05827 ± 0.00052 | sfGFP reporter fluorescence ([2]; ligand: 30 µM Zn): 0.0535 ± 0.0036

MNIQIGELAKRTACPVVTIRFYEQEGLLPPPGRSRGNFRLYGEEHVERLQFIRHCRSLDMPLSDVRTLLSYRKRPDQDCGEVNMLLDEHIRQVESRIGALLELKHHLVELREACSGARPAQSCGILQGFSDCVCDTRGTTAHPSD [L129F]
sfGFP reporter fluorescence [1]: 0.0559 ± 0.0013 | sfGFP reporter fluorescence ([2]; ligand: 1 µM Pb): 0.0581 ± 0.00078 | sfGFP reporter fluorescence ([2]; ligand: 30 µM Zn): 0.0564 ± 0.001
